Experiment in all cases: two-hybrid; BACTH in E. coli BTH101 (cya); full length proteins fused to the C-terminus of T18 (pUT18C) or T25 (pKT25) of CyaA; blue colonies on X-Gal/IPTG plates, 30°C, 24 h, and β-galactosidase activity of liquid cultures in Miller units; biological duplicate
The target in test [1] is SpoIIIAH (Clostridium difficile).
Test [2] deals with SpoIIQ (Clostridium difficile).
Test [3] concerns the target SpoIIM (Clostridium difficile).
Test [4] concerns the target SpoIIP H142R (Clostridium difficile).

For the molecule SpoIIQ (natural protein), the values for the β-galactosidase activity in test [1] and in test [2] were 701 Miller Units and 743 MU, respectively.

B1: SpoIID (natural protein)
chain: MKNPLVVLLGFVTCSVLVPSLITLVSYKNVELTEKPESPVSINKTIKKSDIEDKGNKEEKNTVNYETVNKKAPIINVYNHITGKTEKMDMENYLCGVLAGEMSSEFDIEALKAQSVAARTYVVYKQEHGKSSKHKNAVVCTDYKHCQEYKSYDTLKKLNGEEWIKNKYSKIQEAVRGTKGQIITYNDKAILPLYFSTSSGKTENSEEVFSAKYPYLKSVESPYDKYSPKFASTLKISNTDFVKSLRRAYSTIVIDVNNLSKQVSITKRSDAGTVEKIKLGNKELTGKDIRTVFKLNSANFDIKFGEGYIDFVVKGYGHGVGMSQWGAEGMAEEGYKYYDILSHYYTDTKIKDIY
B1: the β-galactosidase activity in test [1] came out at 656 MU; in test [3], 699 MU; in test [4] it was 229 MU; in test [2] it was 761 MU.
